Residue numbers refer to the chain shown, from its start.
B1: AbA-TV (antibody, human IgG1, kappa, V domains shown)
VH: EVQLQESGPGLVKPSQTLSLTCTVSGYSISRDFAWNWIRQPPGKGLEWMGYISYNGNTRYQPSLKSRITISRDTSKNQFFLKLNSVTAADTATYYCVTASRGFPYWGQGTLVTVSS
VL: DIQMTQSPSSMSVSVGDRVTITCHSSQDINSNIGWLQQKPGKSFKGLIYHGTNLDDGVPSRFSGSGSGTDYTLTISSLQPEDFATYYCVQYAQFPWTFGGGTKLEIKR
modifications: synthon TV on reduced interchain cysteines; average DAR 3.7 per ADC
B2: AbA-ZZ (antibody, human IgG1, kappa, V domains shown)
VH: B1 VH
VL: B1 VL
modifications: synthon ZZ on reduced interchain cysteines; average DAR 1.3 per ADC
B3: AbA-LB (antibody, human IgG1, kappa, V domains shown)
VH: B1 VH
VL: B1 VL
modifications: synthon LB on reduced interchain cysteines; average DAR 2.4 per ADC
B4: AbK-WD (antibody, human IgG1, kappa, V domains shown)
VH: B1 VH with Y105W
VL: B1 VL with N30T, S31Y, I33V, T52S, D56H, A92D, Q93D
modifications: synthon WD on reduced interchain cysteines; average DAR 1.7 per ADC
B5: AbB-LB (antibody, human IgG1, kappa, V domains shown)
VH: B1 VH with R31N, N55K, Y105W
VL: B1 VL
modifications: synthon LB on reduced interchain cysteines; average DAR 1.8 per ADC
B6: AbK-LB (antibody, human IgG1, kappa, V domains shown)
VH: B1 VH with Y105W
VL: B1 VL with N30T, S31Y, I33V, T52S, D56H, A92D, Q93D
modifications: synthon LB on reduced interchain cysteines; average DAR 1.8 per ADC
B7: AbB-WD (antibody, human IgG1, kappa, V domains shown)
VH: B1 VH with R31N, N55K, Y105W
VL: B1 VL
modifications: synthon WD on reduced interchain cysteines; average DAR 1.6 per ADC
B8: AbG-WD (antibody, human IgG1, kappa, V domains shown)
VH: B1 VH with R31N, P41L, N55K, F103L
VL: B1 VL with N30T, S31Y, T52A, A92D, Q93E
modifications: synthon WD on reduced interchain cysteines; average DAR 3.4 per ADC
B9: AbA-ZT (antibody, human IgG1, kappa, V domains shown)
VH: B1 VH
VL: B1 VL
modifications: synthon ZT on reduced interchain cysteines; average DAR 2 per ADC
B10: AbG-LB (antibody, human IgG1, kappa, V domains shown)
VH: B1 VH with R31N, P41L, N55K, F103L
VL: B1 VL with N30T, S31Y, T52A, A92D, Q93E
modifications: synthon LB on reduced interchain cysteines; average DAR 2.5 per ADC
B11: AbA-WD (antibody, human IgG1, kappa, V domains shown)
VH: B1 VH
VL: B1 VL
modifications: synthon WD on reduced interchain cysteines; average DAR 1.8 per ADC

These binders were tested against human EGFR (huEGFR) over-expressed on mcl-1-/- mouse embryonic fibroblasts (human, UniProt P00533 25-1210) (assay: cell-based or functional assay).

Binder	huEGFR+ mcl-1-/- MEF EC50
B1	3 nM
B2	186 nM
B3	27 nM
B4	35 nM
B5	31 nM
B6	17 nM
B7	23 nM
B8	5.8 nM
B9	104 nM
B10	24 nM
B11	304 nM

The binders below were run against EGFR on EGFR positive non-small cell lung cancer cells NCI-H1650 (UniProt P00533 25-1210) (assay: cell-based or functional assay).

Binder	H1650 CTG-3D EC50	H1650 GFP Flourescence EC50
B1	0.34 µg/mL	0.69 µg/mL
B2	1.86 µg/mL	1.18 µg/mL
B3	4.05 µg/mL	2.48 µg/mL
B4	4.36 µg/mL	2.57 µg/mL
B5	1.07 µg/mL	2.38 µg/mL
B6	1.23 µg/mL	1.33 µg/mL
B7	2.69 µg/mL	1.01 µg/mL
B8	2.03 µg/mL	0.36 µg/mL
B9	0.35 µg/mL	1.13 µg/mL
B10	1.68 µg/mL	1.62 µg/mL
B11	23.6 µg/mL	7.62 µg/mL

From patent US20240199745A1, “ANTI-EGFR ANTIBODY DRUG CONJUGATES” (priority 2016, published 2024)
